Results published in patent publication US20250281613A1 (CELLECTIS S A, published 2025).

Target: T1, CS1 recombinant protein (SEQ ID NO: 97), plate-bound
T1 chain: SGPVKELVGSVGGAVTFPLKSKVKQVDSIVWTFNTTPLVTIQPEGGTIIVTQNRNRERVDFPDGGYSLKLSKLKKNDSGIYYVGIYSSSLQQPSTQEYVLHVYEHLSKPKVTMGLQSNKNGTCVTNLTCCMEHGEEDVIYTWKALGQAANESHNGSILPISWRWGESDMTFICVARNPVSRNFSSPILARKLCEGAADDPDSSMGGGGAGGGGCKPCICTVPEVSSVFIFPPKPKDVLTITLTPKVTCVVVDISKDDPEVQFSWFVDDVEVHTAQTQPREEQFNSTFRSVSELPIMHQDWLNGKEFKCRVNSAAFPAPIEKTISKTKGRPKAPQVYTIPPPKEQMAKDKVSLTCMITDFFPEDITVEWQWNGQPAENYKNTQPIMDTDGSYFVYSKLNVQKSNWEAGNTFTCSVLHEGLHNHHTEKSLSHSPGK
Assay: cell-based or functional assay

B1: CS1-specific second generation CAR (SEQ ID NO: 96) on T cells (other)
chain: QVQLQQPGAELVRPGASVKLSCKASGYSFTTYWMNWVKQRPGQGLEWIGMIHPSDSETRLNQKFKDKATLTVDKSSSTAYMQLSSPTSEDSAVYYCARSTMIATRAMDYWGQGTSVTVSSGGGGSGGGGSGGGGSDIVMTQSQKSMSTSVGDRVSITCKASQDVITGVAWYQQKPGQSPKLLIYSASYRYTGVPDRFTGSGSGTDFTFTISNVQAEDLAVYYCQQHYSTPLTFGAGTKLELKTTTPAPRPPTPAPTIASQPLSLRPEACRPAAGGAVHTRGLDFACDIYIWAPLAGTCGVLLLSLVITLYCKRGRKKLLYIFKQPFMRPVQTTQEEDGCSCRFPEEEEGGCELRVKFSRSADAPAYQQGQNQLYNELNLGRREEYDVLDKRRGRDPEMGGKPRRKNPQEGLYNELQKDKMAEAYSEIGMKGERRRGKGHDGLYQGLSTATKDTYDALHMQALPPR
For B1, the “RNA-seq of CAR+ T cells 24 h after activation on plate-bound CS1 protein versus unactivated cells: genes induced (fold change greater than 5)” value was 159 genes.
